Data: US20240293478A1 (ACTYM THERAPEUTICS, published 2024)

T1: DLL3 on SHP77 cells (UniProt Q9NYJ7 27-618, limits assumed)
T1 construct: whole, on cells; also called delta-like ligand 3
T1 sequence (looked up): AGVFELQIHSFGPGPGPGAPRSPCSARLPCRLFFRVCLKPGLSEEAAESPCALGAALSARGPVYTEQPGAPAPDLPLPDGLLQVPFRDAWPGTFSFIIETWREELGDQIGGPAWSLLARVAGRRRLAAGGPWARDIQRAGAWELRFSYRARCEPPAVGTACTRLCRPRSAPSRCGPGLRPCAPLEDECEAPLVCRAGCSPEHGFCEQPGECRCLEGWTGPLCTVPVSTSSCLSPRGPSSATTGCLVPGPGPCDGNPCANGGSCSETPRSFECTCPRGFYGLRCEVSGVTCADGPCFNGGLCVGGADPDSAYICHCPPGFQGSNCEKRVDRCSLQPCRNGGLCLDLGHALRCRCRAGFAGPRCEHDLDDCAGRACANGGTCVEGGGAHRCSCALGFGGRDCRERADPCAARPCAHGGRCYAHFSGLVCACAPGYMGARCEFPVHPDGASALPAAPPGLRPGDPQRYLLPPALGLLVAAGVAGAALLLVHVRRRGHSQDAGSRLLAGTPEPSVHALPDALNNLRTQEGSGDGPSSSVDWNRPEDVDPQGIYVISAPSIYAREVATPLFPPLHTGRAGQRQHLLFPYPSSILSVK

T2: Human DLL3 (R&D Systems) (human, UniProt Q9NYJ7 27-492, limits assumed)
T2 sequence (looked up): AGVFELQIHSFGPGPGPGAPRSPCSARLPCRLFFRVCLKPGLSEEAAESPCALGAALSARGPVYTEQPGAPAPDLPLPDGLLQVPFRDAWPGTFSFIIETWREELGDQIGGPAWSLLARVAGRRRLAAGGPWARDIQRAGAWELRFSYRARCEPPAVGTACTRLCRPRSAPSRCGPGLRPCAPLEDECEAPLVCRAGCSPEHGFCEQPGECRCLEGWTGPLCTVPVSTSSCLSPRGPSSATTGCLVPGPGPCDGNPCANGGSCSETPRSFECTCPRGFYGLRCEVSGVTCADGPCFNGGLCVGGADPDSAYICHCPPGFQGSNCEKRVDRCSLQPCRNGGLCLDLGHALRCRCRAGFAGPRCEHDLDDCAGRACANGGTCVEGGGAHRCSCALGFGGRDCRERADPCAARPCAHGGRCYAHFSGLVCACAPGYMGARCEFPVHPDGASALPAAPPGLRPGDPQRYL

B1: SC16.56 DLL3LH×CD3HL (bispecific antibody)
chain: SIVMTQTPKFLLVSAGDRVTITCKASQSVSNDVVWYQQKPGQSPKLLIYYASNRYTGVPDRFAGSGYGTDFSFTISTVQAEDLAVYFCQQDYTSPWTFGGGTKLEIRGGGGSGGGGSGGGGSQIQLVQSGPELKKPGETVKISCKASGYTFTNYGMNWVKQAPGKGLKWMAWINTYTGEPTYADDFKGRFAFSLETSASTASLQIINLKNEDTATYFCARIGDSSPSDYWGQGTTLTVSSGGGGSEVQLVESGGGLVQPGKSLKLSCEASGFTFSGYGMHWVRQAPGRGLESVAYITSSSINIKYADAVKGRFTVSRDNAKNLLFLQMNILKSEDTAMYYCARFDWDKNYWGQGTMVTVSSGGGGSGGGGSGGGGSDIQMTQSPSSLPASLGDRVTINCQASQDISNYLNWYQQKPGKAPKLLIYYTNKLADGVPSRFSGSGSGRDSSFTISSLESEDIGSYYCQQYYNYPWTFGPGTKLEIKDYKDDDDK
notes: the leader is left out here; Tested as HEK293T supernatant; also called SC16.56 DLL3LHxCD3HL BiTE
B2: SC16.34 DLL3HL×CD3HL (bispecific antibody)
chain: QIQLVQSGPELKRPGETVKISCKASGYTFTNYGMNWVKQAPGKGLKWMGWINTYTGDPTYADDFKGRFAFSLETSASTAYLQINNLKNEDTATYFCARIGGNSPSDYWGQGTSLTVSSGGGGSGGGGSGGGGSSIVMTQTPKFLLVSAGDRVTITCKASQSVSNDVAWYQQKPGQSPKLLIYYASNRYSGVPDRFTGSGYGTDFTFTISTVQAEDLAVYFCQQDYSSPWTFGGGTKLEIKGGGGSEVQLVESGGGLVQPGKSLKLSCEASGFTFSGYGMHWVRQAPGRGLESVAYITSSSINIKYADAVKGRFTVSRDNAKNLLFLQMNILKSEDTAMYYCARFDWDKNYWGQGTMVTVSSGGGGSGGGGSGGGGSDIQMTQSPSSLPASLGDRVTINCQASQDISNYLNWYQQKPGKAPKLLIYYTNKLADGVPSRFSGSGSGRDSSFTISSLESEDIGSYYCQQYYNYPWTFGPGTKLEIKDYKDDDDK
notes: the leader is left out here; Tested as HEK293T supernatant; also called SC16.34 DLL3HLxCD3HL BiTE
B3: SC16.34 DLL3LH×CD3HL (bispecific antibody)
chain: SIVMTQTPKFLLVSAGDRVTITCKASQSVSNDVAWYQQKPGQSPKLLIYYASNRYSGVPDRFTGSGYGTDFTFTISTVQAEDLAVYFCQQDYSSPWTFGGGTKLEIKGGGGSGGGGSGGGGSQIQLVQSGPELKRPGETVKISCKASGYTFTNYGMNWVKQAPGKGLKWMGWINTYTGDPTYADDFKGRFAFSLETSASTAYLQINNLKNEDTATYFCARIGGNSPSDYWGQGTSLTVSSGGGGSEVQLVESGGGLVQPGKSLKLSCEASGFTFSGYGMHWVRQAPGRGLESVAYITSSSINIKYADAVKGRFTVSRDNAKNLLFLQMNILKSEDTAMYYCARFDWDKNYWGQGTMVTVSSGGGGSGGGGSGGGGSDIQMTQSPSSLPASLGDRVTINCQASQDISNYLNWYQQKPGKAPKLLIYYTNKLADGVPSRFSGSGSGRDSSFTISSLESEDIGSYYCQQYYNYPWTFGPGTKLEIKDYKDDDDK
notes: the leader is left out here; also called SC16.34 DLL3LHxCD3HL BiTE
B4: SC16.15 DLL3HL×CD3HL (bispecific antibody)
chain: QVQLQQSGAELAKPGASVKMSCKASGYTFTRYWIHWIKQRPGQGLEWIGYINPTTVYTEFNQNFKDKATLTADKSSTTASMQLSSLTSEDSAVYYCARGGSNFFDYWGQGTTLTVSSGGGGSGGGGSGGGGSDIQMTQSPASLAASVGETVAITCRASENIYYNLAWYQQKQGKSPQLLIYTANSLEDGVPSRFSGSGSGTQYSLKINSMQPEDSATYFCKQAYDVPPTFGGGTKLEIKGGGGSEVQLVESGGGLVQPGKSLKLSCEASGFTFSGYGMHWVRQAPGRGLESVAYITSSSINIKYADAVKGRFTVSRDNAKNLLFLQMNILKSEDTAMYYCARFDWDKNYWGQGTMVTVSSGGGGSGGGGSGGGGSDIQMTQSPSSLPASLGDRVTINCQASQDISNYLNWYQQKPGKAPKLLIYYTNKLADGVPSRFSGSGSGRDSSFTISSLESEDIGSYYCQQYYNYPWTFGPGTKLEIKDYKDDDDK
notes: the leader is left out here; Tested as HEK293T supernatant; also called SC16.15 DLL3HLxCD3HL BiTE
B5: SC16.56 DLL3HL×CD3HL (bispecific antibody)
chain: QIQLVQSGPELKKPGETVKISCKASGYTFTNYGMNWVKQAPGKGLKWMAWINTYTGEPTYADDFKGRFAFSLETSASTASLQIINLKNEDTATYFCARIGDSSPSDYWGQGTTLTVSSGGGGSGGGGSGGGGSSIVMTQTPKFLLVSAGDRVTITCKASQSVSNDVVWYQQKPGQSPKLLIYYASNRYTGVPDRFAGSGYGTDFSFTISTVQAEDLAVYFCQQDYTSPWTFGGGTKLEIRGGGGSEVQLVESGGGLVQPGKSLKLSCEASGFTFSGYGMHWVRQAPGRGLESVAYITSSSINIKYADAVKGRFTVSRDNAKNLLFLQMNILKSEDTAMYYCARFDWDKNYWGQGTMVTVSSGGGGSGGGGSGGGGSDIQMTQSPSSLPASLGDRVTINCQASQDISNYLNWYQQKPGKAPKLLIYYTNKLADGVPSRFSGSGSGRDSSFTISSLESEDIGSYYCQQYYNYPWTFGPGTKLEIKDYKDDDDK
notes: the leader is left out here; Tested as HEK293T supernatant; also called SC16.56 DLL3HLxCD3HL BiTE
B6: SC16.15 DLL3LH×CD3HL (bispecific antibody)
chain: DIQMTQSPASLAASVGETVAITCRASENIYYNLAWYQQKQGKSPQLLIYTANSLEDGVPSRFSGSGSGTQYSLKINSMQPEDSATYFCKQAYDVPPTFGGGTKLEIKGGGGSGGGGSGGGGSQVQLQQSGAELAKPGASVKMSCKASGYTFTRYWIHWIKQRPGQGLEWIGYINPTTVYTEFNQNFKDKATLTADKSSTTASMQLSSLTSEDSAVYYCARGGSNFFDYWGQGTTLTVSSGGGGSEVQLVESGGGLVQPGKSLKLSCEASGFTFSGYGMHWVRQAPGRGLESVAYITSSSINIKYADAVKGRFTVSRDNAKNLLFLQMNILKSEDTAMYYCARFDWDKNYWGQGTMVTVSSGGGGSGGGGSGGGGSDIQMTQSPSSLPASLGDRVTINCQASQDISNYLNWYQQKPGKAPKLLIYYTNKLADGVPSRFSGSGSGRDSSFTISSLESEDIGSYYCQQYYNYPWTFGPGTKLEIKDYKDDDDK
notes: the leader is left out here; Tested as HEK293T supernatant; also called SC16.15 DLL3LHxCD3HL BiTE

Target: T1, DLL3 on SHP77 cells
Experiment: flow cytometry on SHP77 cells, concentrated HEK supernatant, anti-Flag biotin + Streptavidin APC; percent APC positive cells
Method: (§1) 500,000 SHP77 cells were seeded in wells of a V-bottom 96-well plate. The cells were washed once with PBS+2% FBS by centrifugation at 1300 RPM for 3 minutes. The cells were resuspended in 50 uL PBS+2% FBS containing concentrated HEK supernatant corresponding to either untransfected cells or cells transfected with a BiTE. After 30 minutes, the cells were washed twice with PBS+2% FBS by centrifugation at 1300 RPM for 3 minutes. The cells were then resuspended in 50 uL PBS+2% FBS containing either anti-Flag biotin (Sigma) at 1:100 dilution or Protein L biotin (Genscript) at 1:200 dilution, and incubated on ice for 30 minutes. The cells were washed twice with PBS+2% FBS by centrifugation at 1300 RPM for 3 minutes. Subsequently, the cells were stained with Streptavidin APC (Biolegend) at 1:200 dilution and incubated on ice for 30 minutes in the dark.
(§2) The cells were washed twice with PBS+2% FBS by centrifugation at 1300 RPM for 3 minutes and resuspended in DAPI diluted 1:6000 in PBS+2% FBS. Flow cytometry data were acquired using the ACEA NovoCyte® flow cytometer (ACEA Biosciences, Inc.), and analyzed using the FlowJo™ software (Tree Star, Inc.).

| Binder | % Binding to SHP77 Detected by anti-Flag |
| --- | --- |
| B1 | 20.9% |
| B2 | 19.6% |
| B3 | 20.1% |

Target: T2, Human DLL3 (R&D Systems)
Experiment: bridging ELISA (human DLL3 coated, CD3e-Fc detection) with engagers purified on ANTI-FLAG M2 Affinity Gel
Method: (§3) The expressed DLL3×CD3 bispecific T-cell engagers also were evaluated for binding to DLL3 and to CD3 with an ELISA. This ELISA was developed to detect correctly folded DLL3×CD3 bispecific T-cell engager binding to DLL3 and CD3 in the same assay. Human DLL3 (R&D Systems) was coated overnight at 4° C. on a high protein-binding 96-well plate, at a concentration of 1 ug/ml. The wells then were washed three times with PBS 0.05% Tween-20, and the wells were blocked with ELISA blocking buffer for 1 hour at room temperature. The wells then were washed three times with PBS 0.05% Tween-20. HEK293T cell culture supernatants, containing the DLL3×CD3 bispecific T-cell engagers, were added to the wells and incubated for 2 hours at room temperature. The wells were washed three times with PBS 0.05% Tween-20, and human IgG Fc conjugated CD3e was added to the wells (Acro Biosystems), and incubated for one hour at room temperature. The wells again were washed three times with PBS 0.05% Tween-20, and horseradish peroxidase (HRP)-conjugated anti-human antibody was added for a 1 hour incubation. The wells were then washed three times with PBS 0.05% Tween-20, and detection reagent (3,3′,5,5′-tetramethylbenzidine (TMB), Thermo Fisher Scientific) was added to the wells. The enzymatic reaction was stopped with sulfuric acid (BioLegend), and the optical densities were read at 450 nm.
The table below provides the results of this ELISA, shown as the absorbance at 450 nm. All of the SC16.56 DLL3LH×CD3HL, SC16.34 DLL3HL×CD3HL, and SC16.34 DLL3LH×CD3HL BiTE antibodies were detected, showing that these BiTEs antibodies are fully functional. […] In a separate experiment, the bispecific T-cell engagers were purified using ANTI-FLAG M2 Affinity Gel (Sigma) and run on this ELISA. SC16.34 DLL3LH×CD3HL was the only purified BiTE to show ELISA signal above background.

| Binder | binding result |
| --- | --- |
| B4 | no binding |
| B5 | no binding |
| B6 | no binding |

Target: T1, DLL3 on SHP77 cells
Experiment: flow cytometry on SHP77 cells, concentrated HEK supernatant, Protein L biotin + Streptavidin APC; percent APC positive cells
Method: as §1, §2

| Binder | % Binding to SHP77 Detected by Protein L |
| --- | --- |
| B1 | 36.4% |
| B2 | 36.6% |
| B3 | 36.4% |

Target: T2, Human DLL3 (R&D Systems)
Experiment: bridging ELISA: human DLL3 coated at 1 ug/ml, HEK293T supernatant, detection by human IgG Fc conjugated CD3e + anti-human-HRP (signal needs binding to both DLL3 and CD3e); untransfected 0.010
Method: as §3

| Binder | Absorbance at 450 nm |
| --- | --- |
| B4 | 0.002 absorbance (450 nm) |
| B5 | 0.007 absorbance (450 nm) |
| B1 | 0.175 absorbance (450 nm) |
| B2 | 0.253 absorbance (450 nm) |
| B3 | 1.46 absorbance (450 nm) |
| B6 | 0.001 absorbance (450 nm) |
